Data from IntAct's records for PubMed 36402845.

B1: Exostosin-2 (Homo sapiens), Q93063 (parent)
chain: MCASVKYNIRGPALIPRMKTKHRIYYITLFSIVLLGLIATGMFQFWPHSIESSNDWNVEKRSIRDVPVVRLPADSPIPERGDLSCRMHTCFDVYRCGFNPKNKIKVYIYALKKYVDDFGVSVSNTISREYNELLMAISDSDYYTDDINRACLFVPSIDVLNQNTLRIKETAQAMAQLSRWDRGTNHLLFNMLPGGPPDYNTALDVPRDRALLAGGGFSTWTYRQGYDVSIPVYSPLSAEVDLPEKGPGPRQYFLLSSQVGLHPEYREDLEALQVKHGESVLVLDKCTNLSEGVLSVRKRCHKHQVFDYPQVLQEATFCVVLRGARLGQAVLSDVLQAGCVPVVIADSYILPFSEVLDWKRASVVVPEEKMSDVYSILQSIPQRQIEEMQRQARWFWEAYFQSIKAIALATLQIINDRIYPYAAISYEEWNDPPAVKWGSVSNPLFLPLIPPQSQGFTAIVLTYDRVESLFRVITEVSKVPSLSKLLVVWNNQNKNPPEDSLWPKIRVPLKVVRTAENKLSNRFFPYDEIETEAVLAIDDDIIMLTSDELQFGYEVWREFPDRLVGYPGRLHLWDHEMNKWKYESEWTNEVSMVLTGAAFYHKYFNYLYTYKMPGDIKNWVDAHMNCEDIAMNFLVANVTGKAVIKVTPRKKFKCPECTAIDGLSLDQTHMVERSECINKFASVFGTMPLKVVEHRADPVLYKDDFPEKLKSFPNIGSL
partner: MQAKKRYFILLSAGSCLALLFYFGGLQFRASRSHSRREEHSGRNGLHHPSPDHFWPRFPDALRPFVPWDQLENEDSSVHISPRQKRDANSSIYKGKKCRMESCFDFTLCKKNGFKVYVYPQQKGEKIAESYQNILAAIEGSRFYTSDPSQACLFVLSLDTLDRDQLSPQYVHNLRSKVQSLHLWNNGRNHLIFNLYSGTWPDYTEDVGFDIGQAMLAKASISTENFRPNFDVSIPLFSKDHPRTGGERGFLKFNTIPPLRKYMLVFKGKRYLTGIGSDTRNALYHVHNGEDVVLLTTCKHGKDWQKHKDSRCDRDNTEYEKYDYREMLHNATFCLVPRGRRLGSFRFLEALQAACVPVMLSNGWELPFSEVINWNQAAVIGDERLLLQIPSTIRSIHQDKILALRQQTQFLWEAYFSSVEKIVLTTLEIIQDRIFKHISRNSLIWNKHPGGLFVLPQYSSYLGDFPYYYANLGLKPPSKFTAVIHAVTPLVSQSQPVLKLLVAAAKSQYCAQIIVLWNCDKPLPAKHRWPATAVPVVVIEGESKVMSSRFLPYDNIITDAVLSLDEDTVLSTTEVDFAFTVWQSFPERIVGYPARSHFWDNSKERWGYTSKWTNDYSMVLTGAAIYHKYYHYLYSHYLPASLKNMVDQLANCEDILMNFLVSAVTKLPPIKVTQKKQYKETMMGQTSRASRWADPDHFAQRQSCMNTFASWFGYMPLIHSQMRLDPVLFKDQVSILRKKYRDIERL
B2: Exostosin-1 (Homo sapiens), Q16394 (parent)
chain: B1 partner
partner: B1 chain

Variants of: B1
Conditions: with ext1_human EXT1, Q16394

| effect of a mutation on the interaction | Variant |
| --- | --- |
| with no effect | D538N;D540N |
| with no effect | R266A |

Variants of: B2
Conditions: with ext2_human EXT2, Q93063

| Variant | effect of a mutation on the interaction |
| --- | --- |
| D162N;D164N | with no effect |
| R280A | with no effect |

Now from value to variant:

| effect of a mutation on the interaction | Variant |
| --- | --- |
| with no effect | R346A |
| decreasing interaction strength | D565N;D567N |
